Test system: Escherichia coli TOP10
Assay: shrunken log2 fold change of peptide-encoding DNA abundance (4.5 h post-induction vs induction); higher = less antimicrobial activity (less host growth inhibition)
Settings: time post-induction: 4.5 h; library: site-saturation at positions 5, 18, 19, 20
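Further: peptides expressed intracellularly from a pBAD plasmid library in pooled LB shake-flask culture, induced with 0.3% L-arabinose, DNA abundance read by NGS, three biological replicates, DESeq2 with apeglm shrinkage.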

RRIRHRPPRLPRPRPRPQVIPRP
shrunken log2 fold change: -0.0106

RRIRHRPPRLPRPRPRPQWPPRP
shrunken log2 fold change: 0.112

RRIRHRPPRLPRPRPRPQWSPRP
shrunken log2 fold change: -0.0854

RRIRHRPPRLPRPRPRPRASPRP
shrunken log2 fold change: 0.286

RRIRHRPPRLPRPRPRPRCDPRP
shrunken log2 fold change: 0.128

RRIRHRPPRLPRPRPRPRCTPRP
shrunken log2 fold change: 0.0847

RRIRHRPPRLPRPRPRPRCYPRP
shrunken log2 fold change: -0.154

RRIRHRPPRLPRPRPRPRFEPRP
shrunken log2 fold change: 0.185

RRIRHRPPRLPRPRPRPRGAPRP
shrunken log2 fold change: 0.152

RRIRHRPPRLPRPRPRPRGSPRP
shrunken log2 fold change: -0.00481

RRIRHRPPRLPRPRPRPRGVPRP
shrunken log2 fold change: 0.335

RRIRHRPPRLPRPRPRPRHDPRP
shrunken log2 fold change: -0.0713

RRIRHRPPRLPRPRPRPRHPPRP
shrunken log2 fold change: 0.0823

RRIRHRPPRLPRPRPRPRKFPRP
shrunken log2 fold change: 0.15

RRIRHRPPRLPRPRPRPRKHPRP
shrunken log2 fold change: -0.113

RRIRHRPPRLPRPRPRPRKRPRP
shrunken log2 fold change: 0.246

RRIRHRPPRLPRPRPRPRLFPRP
shrunken log2 fold change: 0.164

RRIRHRPPRLPRPRPRPRLWPRP
shrunken log2 fold change: 0.63

RRIRHRPPRLPRPRPRPRMCPRP
shrunken log2 fold change: -0.0257

RRIRHRPPRLPRPRPRPRMYPRP
shrunken log2 fold change: -0.194

RRIRHRPPRLPRPRPRPRNHPRP
shrunken log2 fold change: -0.481

RRIRHRPPRLPRPRPRPRNIPRP
shrunken log2 fold change: -0.326

RRIRHRPPRLPRPRPRPRPAPRP
shrunken log2 fold change: 0.479

RRIRHRPPRLPRPRPRPRPVPRP
shrunken log2 fold change: 0.22

RRIRHRPPRLPRPRPRPRQQPRP
shrunken log2 fold change: 0.283

RRIRHRPPRLPRPRPRPRQVPRP
shrunken log2 fold change: -0.108

RRIRHRPPRLPRPRPRPRRHPRP
shrunken log2 fold change: 0.153

RRIRHRPPRLPRPRPRPRRQPRP
shrunken log2 fold change: 0.0256

RRIRHRPPRLPRPRPRPRTSPRP
shrunken log2 fold change: 0.245

RRIRHRPPRLPRPRPRPRVFPRP
shrunken log2 fold change: 0.201

RRIRHRPPRLPRPRPRPRWFPRP
shrunken log2 fold change: 0.161

RRIRHRPPRLPRPRPRPRYGPRP
shrunken log2 fold change: -0.629

RRIRHRPPRLPRPRPRPSCYPRP
shrunken log2 fold change: -1.1

RRIRHRPPRLPRPRPRPSDFPRP
shrunken log2 fold change: 0.00333

RRIRHRPPRLPRPRPRPSEKPRP
shrunken log2 fold change: -0.144

RRIRHRPPRLPRPRPRPSERPRP
shrunken log2 fold change: -0.0252

RRIRHRPPRLPRPRPRPSFEPRP
shrunken log2 fold change: -0.358

RRIRHRPPRLPRPRPRPSFWPRP
shrunken log2 fold change: 0.00023

RRIRHRPPRLPRPRPRPSGFPRP
shrunken log2 fold change: 0.112

RRIRHRPPRLPRPRPRPSGNPRP
shrunken log2 fold change: -0.199

RRIRHRPPRLPRPRPRPSHQPRP
shrunken log2 fold change: -0.178

RRIRHRPPRLPRPRPRPSHSPRP
shrunken log2 fold change: -0.577

RRIRHRPPRLPRPRPRPSIHPRP
shrunken log2 fold change: -0.924

RRIRHRPPRLPRPRPRPSKGPRP
shrunken log2 fold change: -0.149

RRIRHRPPRLPRPRPRPSKQPRP
shrunken log2 fold change: -0.166

RRIRHRPPRLPRPRPRPSLFPRP
shrunken log2 fold change: -0.625

RRIRHRPPRLPRPRPRPSMAPRP
shrunken log2 fold change: 0.231

RRIRHRPPRLPRPRPRPSMYPRP
shrunken log2 fold change: -0.0507

RRIRHRPPRLPRPRPRPSNAPRP
shrunken log2 fold change: -0.38

RRIRHRPPRLPRPRPRPSQAPRP
shrunken log2 fold change: -0.142

RRIRHRPPRLPRPRPRPSQHPRP
shrunken log2 fold change: -0.411

RRIRHRPPRLPRPRPRPSQIPRP
shrunken log2 fold change: -0.0599

RRIRHRPPRLPRPRPRPSRDPRP
shrunken log2 fold change: 0.234

RRIRHRPPRLPRPRPRPSRFPRP
shrunken log2 fold change: 0.0223

RRIRHRPPRLPRPRPRPSSSPRP
shrunken log2 fold change: -0.258

RRIRHRPPRLPRPRPRPSSWPRP
shrunken log2 fold change: -0.0281

RRIRHRPPRLPRPRPRPSTKPRP
shrunken log2 fold change: -0.383

RRIRHRPPRLPRPRPRPSTQPRP
shrunken log2 fold change: -0.0473

RRIRHRPPRLPRPRPRPSTWPRP
shrunken log2 fold change: -0.674

RRIRHRPPRLPRPRPRPSVNPRP
shrunken log2 fold change: -0.0443

— the supplement of paper PMC9112550, “Optimization of the antimicrobial peptide Bac7 by deep mutational scanning” (BMC Biology, 2022)
